The target of one assay is T1, fibrin (Homo sapiens, UniProt P02671+P02675+P02679).
T1 sequence (P02671 36-629 limits assumed): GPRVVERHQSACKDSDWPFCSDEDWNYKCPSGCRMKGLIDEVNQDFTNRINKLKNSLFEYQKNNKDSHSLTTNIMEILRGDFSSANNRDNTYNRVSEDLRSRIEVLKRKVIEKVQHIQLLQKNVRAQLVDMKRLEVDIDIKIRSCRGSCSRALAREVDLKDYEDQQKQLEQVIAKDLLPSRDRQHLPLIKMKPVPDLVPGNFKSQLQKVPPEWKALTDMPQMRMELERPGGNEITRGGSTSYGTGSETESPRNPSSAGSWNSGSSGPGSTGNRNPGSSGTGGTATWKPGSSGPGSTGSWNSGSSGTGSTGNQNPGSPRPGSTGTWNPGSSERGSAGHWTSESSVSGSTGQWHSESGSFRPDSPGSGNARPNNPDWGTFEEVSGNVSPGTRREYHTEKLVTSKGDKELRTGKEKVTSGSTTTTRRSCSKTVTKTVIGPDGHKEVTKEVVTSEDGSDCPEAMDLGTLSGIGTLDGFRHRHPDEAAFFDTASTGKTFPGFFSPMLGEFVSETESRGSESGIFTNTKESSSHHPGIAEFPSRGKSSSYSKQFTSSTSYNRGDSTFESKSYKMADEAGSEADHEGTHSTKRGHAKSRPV
T1 sequence (P02675 45-491 limits assumed): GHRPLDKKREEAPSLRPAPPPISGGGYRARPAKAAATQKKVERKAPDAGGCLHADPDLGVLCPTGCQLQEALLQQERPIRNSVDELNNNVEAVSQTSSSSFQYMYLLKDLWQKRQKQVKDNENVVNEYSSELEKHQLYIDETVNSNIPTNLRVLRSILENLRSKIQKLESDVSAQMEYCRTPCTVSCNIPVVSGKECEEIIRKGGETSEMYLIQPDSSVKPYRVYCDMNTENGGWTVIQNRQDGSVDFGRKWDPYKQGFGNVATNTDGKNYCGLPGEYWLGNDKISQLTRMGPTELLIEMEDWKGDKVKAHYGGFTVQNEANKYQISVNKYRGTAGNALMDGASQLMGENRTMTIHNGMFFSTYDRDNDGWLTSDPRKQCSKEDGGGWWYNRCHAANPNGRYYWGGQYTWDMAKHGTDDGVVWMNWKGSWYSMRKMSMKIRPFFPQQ
T1 sequence (P02679 27-437 isoform P02679-2 limits assumed): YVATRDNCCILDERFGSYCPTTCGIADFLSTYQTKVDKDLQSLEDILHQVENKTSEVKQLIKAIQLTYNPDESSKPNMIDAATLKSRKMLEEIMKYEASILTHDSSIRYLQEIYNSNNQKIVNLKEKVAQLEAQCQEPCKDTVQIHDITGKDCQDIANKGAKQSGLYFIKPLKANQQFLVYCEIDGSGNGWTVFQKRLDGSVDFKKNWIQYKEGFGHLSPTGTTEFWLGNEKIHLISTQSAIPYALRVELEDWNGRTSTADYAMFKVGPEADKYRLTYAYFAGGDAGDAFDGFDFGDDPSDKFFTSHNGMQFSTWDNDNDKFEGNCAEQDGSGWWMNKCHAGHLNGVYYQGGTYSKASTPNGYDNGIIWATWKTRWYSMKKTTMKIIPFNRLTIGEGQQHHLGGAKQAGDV
The experiment in a line: Dynamic binding test of targeted microvesicles on fibrin-coated coverslips in a parallel-plate flow chamber. To be noted: shear rate about 114 s^-1, 10 min, 50% human plasma. The protocol: Glass coverslips (40 mm in diameter, Bioptechs Inc., Butler, Pa., USA) were coated with fibrin according the following methodology.
Five mL of a solution of BSA 1% w/v in PBS pH 7.4 were added into a 60 mm Petri Dish containing one coverslip, and incubated at 37° C. for 15 min. Then the coverslip was washed three times with 5 ml of Tween 80/PBS (0.1%, v:v). Twenty five μL of human thrombin solution at 5 U/mL were added per mL of human fibrinogen solution (0.5 mg/mL in 50 mM sodium phosphate, NaCl 280 mM, pH 7.4) and delicately mixed. Five mL of this solution were immediately distributed in each Petri dish. The coverslips were incubated for one hour at 37° C. and then dried overnight at 45° C.
Binding studies of targeted microvesicles were carried out using a parallel-plate flow chamber (FCS2, Bioptech Inc., Butler, Pa., USA) with a chamber gasket of 0.25 mm in thickness, with a customized adapter for upside-down chamber inversion. The coated coverslip was inserted as a plate of the flow chamber. Gas-filled Microvesicles (5×10^6 bubbles/mL in 50% human plasma in PBS) were drawn through the flow chamber using an adjustable infusion pump (Auto Syringe® AS50 Infusion Pump, Baxter, Deerfield, Ill., USA) with a 60 mL syringe (Terumo). The pump flow rate was adjusted to 1 mL/min to obtain the desired shear rate of about 114 s^−1. After 10 minutes, the flow was stopped and pictures were taken randomly on different positions on the coverslip (on surfaces of about 0.025 mm^2) using a 40× objective and a CCD monochrome camera (F-View II, Soft Imaging Systems, Germany) connected to an inverted Olympus IX 50 microscope. The number of microvesicles on each picture was determined, averaged with respect to the total number of pictures and the obtained value was then divided by ten (to obtain the “slope”, i.e. the average amount of bound microvesicles per minute).
For each preparation of Examples 17-20, the binding assay was repeated four times thus obtaining an average value of the slope. The slope represents the microvesicle binding rate on the target substrate. […] A higher slope indicates a better capacity of microvesicles to bind to the target under flow conditions.

Assay [1] has as its system neuroblastoma (Neuro-2a) tumor. The experiment in a line: In vivo MRI test of fibrin imaging in neuroblastoma tumor mouse model. To be noted: mice with neuroblastoma tumor; 25 μmol/kg iv.; T1 weighted MRI at 2T, 4 h post injection. The source says: Three groups of 5 mice each, inoculated with 2·10^6 neuroblastoma cells with PBS, were formed and tested as follows: • Group a: Reference compound 2, • Group b: Chelate Complex 1 • Group c: ProHance® (see Protocol)
At day-10 post tumor cells inoculation, at least 4 mice per group with similar tumor size (5-10 mm in diameter) were selected for the in vivo MRI tests. After pre-contrast MRI acquisition (T1 and T2 high resolution 2D spin-echo and 3D gradient echo images), the test compounds were administered (25 μmol/kg iv.) and MRI was performed at 4 h and 24 h post injection. Maximum signal intensity was measured in the entire tumor area and in each post contrast image covering the whole tumor and the signal was compared to the pre-contrast images. At the end of MRI exams, all animals were sacrificed and the tumor, blood, liver, kidneys and femoral bone were removed and prepared for Gd assay by ICP-AES. […]
The mean signal intensity was measured within a region of interest (ROI) including the entire tumor, drawn by an operator on each MR image using dedicated software (MR Research Systems Ltd, Surrey UK). Signal intensity enhancement (Enh %) was determined as: Enh%=100*(SIx(t)−SI0)/SI0 […]

Setting [2] is: microvesicles with DPPE/DPPG envelope containing the lipopeptide (Examples 18A-18C), slope = average bound microvesicles per minute.
The mark [3] stands for this setting: microvesicles with DSPC/stearate envelope containing the lipopeptide (Examples 20A-20D).
[4] abbreviates: microvesicles with DSPC/DSPA envelope, 0.26 μmoles lipopeptide (Examples 20E, 20G, 20H).
[5] abbreviates: microvesicles with DSPC/DPPG envelope containing the lipopeptide (Examples 17A-17B, molar ratio 47.5/47.5/5), slope = average bound microvesicles per minute.
The mark [6] stands for this setting: microvesicles with DSPC/DSPG envelope, Examples 19C-19E (0.45 μmoles lipopeptide, 0.45 μmoles DSPE-PEG1000).

Numbered stars: 1 amine (or outer) side, 2 acyl side, 3 side chain; on linkers, the order of the positions; unused ones are H or OH. Bridge positions count the residues as written; N and C are the ends. Square brackets hold non-standard residues; d marks the D form. Side chains are listed from the residue outwards. Ends that are not written are not given here. * marks the point of attachment. DSPE = distearoyl phosphatidylethanolamine, CCCCCCCCCCCCCCCCCC(=O)OC[C@H](COP(=O)(O)OCCN*)OC(=O)CCCCCCCCCCCCCCCCC; DPPE = CCCCCCCCCCCCCCCC(=O)OC[C@H](COP(=O)(O)OCCN*)OC(=O)CCCCCCCCCCCCCCC; Glutaryl = O=C(CCCC(=O)[*:2])[*:1]; PG4 = not defined here; AEEA = NCCOCCOCC(=O)O

With “Ac-SGSGJWQPC*PWESWTFC*WDPGGGK(DSPE-PG4-Glut)-NH2 (Ac-SGSG[AEEA]WQPCPWESWTFCWDPGGGK-NH2; disulfide 9-17; not fully specified (residue 24); printed as Ac-SGSGJWQPC*PWESWTFC*WDPGGGK(DSPE-PG4-Glut)-NH2) [Seq017-PL1]”, the Slope in the assay with fibrin (setting [2]) is on record as 8.9; with fibrin (setting [3]), 3.1.

As to “Ac-WQPCPAESWTFCWDPGSAGSK(DPPE-Pro9-Glut-Ttda-Dga)-NH2 (Ac-WQPCPAESWTFCWDPGSAGSK-NH2; disulfide 4-12 (inferred); not fully specified (residue 21)) [Seq005-PL4]”, the Slope turned out to be 6.4 in the assay with fibrin (setting [4]) and 8.0 in the assay with fibrin (microvesicles with DSPC/DSPA envelope, 0.795 μmoles lipopeptide (Example 20F)).

For the molecule “Ac-WQPCPAESWTFCWDPGAGSGK(DPPE-Pro9-Glut-Ttda-Dga)-NH2 (Ac-WQPCPAESWTFCWDPGAGSGK-NH2; disulfide 4-12 (inferred); not fully specified (residue 21)) [Seq005-PL5]”, in the assay with fibrin (setting [4]), the Slope worked out at 6.0.

Regarding `CC(O)CN1CCN(CC(=O)[O-])CCN(CC(=O)[O-])CCN(CC(=O)[O-])CC1.[Gd+3]` (stereo not drawn) [ProHance®, reference compound], in assay [1], the tumor signal enhancement result was “no signal enhancement was observed inside the tumors”.

Take “Ac-WQPC*PWESWTFC*WDPGGGK(DPPE-PG4-Glut)-NH2 (Ac-WQPCPWESWTFCWDPGGGK([Glutaryl-PG4-DPPE])-NH2; disulfide 4-12; reading uncertain) [Seq000-PL1, reference compound]”: the Slope was found to be 4.8 with fibrin (setting [2]); 6.44 with fibrin (setting [5]); 4.4 in the assay with fibrin (microvesicles with DSPC/DSPG envelope, Example 19A (0.63 μmole lipopeptide, 0.28 μmole DSPE-PEG1000)); 4.9 with fibrin (microvesicles with DSPC/DSPG envelope, Example 19B (0.36 μmole lipopeptide, 1.44 μmoles DSPE-PEG1000)); 1.6 with fibrin (setting [3]).

For “Ac-GWQPC*PWESWTFC*WDPGGGK(DSPE-PG4-Glut)-NH2 (Ac-GWQPCPWESWTFCWDPGGGK([Glutaryl-PG4-DSPE])-NH2; disulfide 5-13; reading uncertain; also: printed as Ac-GWQPC*PWESWTFC*WDPGGGK(DSPE-PG4-Glut)-NH2) [Seq016-PL1]”, the figures for the Slope with fibrin (setting [6]) and with fibrin (setting [3]) were 11.5 and 8.4, respectively.

“RWQPC*PWESWTFC*WDPGGGK(DSPE-PG4-Glut)-NH2 (RWQPCPWESWTFCWDPGGGK([Glutaryl-PG4-DSPE])-NH2; disulfide 5-13; reading uncertain; also: printed as RWQPC*PWESWTFC*WDPGGGK(DSPE-PG4-Glut)-NH2) [Seq023-PL1]”: the Slope with fibrin (setting [6]) came out at 8.5.

Take “Ac-WQPC*PAESWTFC*WDPGGGK(DSPE-PG4-Glut)-NH2 (Ac-WQPCPAESWTFCWDPGGGK([Glutaryl-PG4-DSPE])-NH2; disulfide 4-12; reading uncertain; also: printed as Ac-WQPC*PAESWTFC*WDPGGGK(DSPE-PG4-Glut)-NH2) [Seq005-PL1]”: the Slope in the assay with fibrin (setting [2]) is 7.2; with fibrin (setting [5]), 8.54; in the assay with fibrin (setting [3]), 6.1.

In turn, “Ac-SGSGSGSGWQPC*PWESWTFC*WDPGGGK(DSPE-PG4-Glut)-NH2 (Ac-SGSGSGSGWQPCPWESWTFCWDPGGGK([Glutaryl-PG4-DSPE])-NH2; disulfide 12-20; reading uncertain; also: printed as Ac-SGSGSGSGWQPC*PWESWTFC*WDPGGGK(DSPE-PG4-Glut)-NH2) [Seq024-PL1]” registered a Slope with fibrin (setting [6]) of 6.2.

The values are drawn from US8466107B2, “Fibrin-binding peptides and conjugates thereof” (Bracco Imaging SpA, priority 2006, dated 2013).
